Laboratory results taken from patent publication US20160046921A1.

B1: β-lyase from Corynebacterium sp. Ax20 (cystathionine-β-lyase, metC gene product) (protein)
chain: MQFSNLDTLRTRGTRKWTQFDDDVIPMFVAESDFPTAPAIKEAIIDACEREMFGYTPAPHAHHLGEAVADFYDWRYGWRPDAAKIFPVADVVRGVLLAIQYFTDGDVIVPVPAYFPFLPIAEAAGRNRIDISSDKGLEGGLDMAEVEEAFKNGAGSIIVTNPFNPGGWMFTSEELDQICDIARRYKGRVLVDEIHAPLTYGKRHVCAAANNPDVCITVTATSKAWNVAGLKCAQMIFTNDEDVKTWNAINPVAKDGVGTLGIIAAEAAYESGREHLDWQVEQLKANRDWLVENLPSLIPGIRFEIPDATYLMFLDFKDTKLGVDKPAAYLLKHARVALSEGVDFGPGGEHRARMNFATSPEILKEATERIARAIEVV
B2: Ax20 peptidase (peptidase from Corynebacterium sp. Ax20, SEQ ID NO:2), recombinant, without histidine tag (enzyme)
chain: MSNDKAATSTNFNLTPNRERIFQELSELISHYSPHSMPEHADTHEEAAKWVTAKLEELGLDVTRHPTVDDADTIIGVKEPVGDAPTILLYSHYDVVPAQNPAVWTNDPLELDERDGRWYGRGAADCKGNVIMHLEALRMVQENGGTDLGLKVVMEGSEELGGEDGLGKLIDANPELFTADVIFIGDGGNVAVGIPTLTTHLRGGAQLRFKVDTLEGPVHSGGWGGAAPDAAHALIRIIDSFFDEHGRTTIEGVDTTAKWEGDPYDRETFRKDARVLDGVQLLGTVDDEPADMVWARPAITVIGFTSVPVEDATNIVNPTAEAQFNLRVPAPQSAAEVAKKVEEQIRARAPWGAKVEVSITGVNEPFSTDPNGPAVQHFGKCLQDAYGAEHLTVVGTGGSIPLTVTLQKHFPDAEFALYGVADPAANIHGVDESVDPTEIEHVAIAEAEFLLTYGK
B3: Ax20 peptidase with histidine tag (SEQ ID NO:2 ligated to a 6x Histidine-Tag), recombinant (enzyme, not shown: small tags and cut ends)
chain: B2 chain

Key:
[1] = molecular target: T1, cys-gly-conjugate (compound of formula FIII)
T1 chain: CG

[2] = molecular target: cys-gly-conjugate (compound of formula FIII); test: cell-based or functional assay
Pro-Gly = molecular target: T2, Pro-Gly
T2 chain: PG

Ala-Gly = molecular target: T3, Ala-Gly
T3 chain: AG

Z-Gly-Gly = molecular target: T4, Z-Gly-Gly
T4 chain: GG

Gly-Gly = molecular target: T5, Gly-Gly
T5 chain: GG

Ala-Ala = molecular target: T6, Ala-Ala
T6 chain: AA

[3] = molecular target: T7, H-Cys(Bzl)-Gly-OH (S-benzyl-Cys-Gly)
T7 chain: CG

| Binder | release of 3-sulfanyl-3-methyl-hexanol from cys-gly-conjugate [mM] (gas chromatography) [1] | release of 3-sulfanyl-3-methyl-hexanol from the Cys-Gly-conjugate [mM]; 10 fold dilution of clear cell lysate, + β-lyase [2] [mM] | release of 3-sulfanyl-3-methyl-hexanol from the Cys-Gly-conjugate [mM]; 100 fold dilution of clear cell lysate, + β-lyase [2] [mM] | release of 3-sulfanyl-3-methyl-hexanol from the Cys-Gly-conjugate [mM]; 1000 fold dilution of clear cell lysate, + β-lyase [2] [mM] | release of a free NH2 group (fluorescamine derivatisation) (Pro-Gly) | Cleavage (thin layer chromatography) (Ala-Gly) | Cleavage (thin layer chromatography) (Z-Gly-Gly) | Cleavage (thin layer chromatography) (Gly-Gly) | Cleavage (thin layer chromatography) (Ala-Ala) | Cleavage (thin layer chromatography) [1] | Cleavage (thin layer chromatography) [3] | Cleavage (thin layer chromatography) (Pro-Gly) |
| --- | --- | --- | --- | --- | --- | --- | --- | --- | --- | --- | --- | --- |
| B1 | < 0.03 |  |  |  |  |  |  |  |  |  |  |  |
| B2 |  | 1 | 0.92 | 0.46 | Cleavage of the peptide substrate Pro-Gly by addition of the recombinant Ax20 peptidase (SEQ ID NO: 2) released a unique free NH2 group |  |  |  |  |  |  |  |
| B3 |  | 0.94 | 0.88 | 0.36 |  | ++ | - | + | ++ | +++ | +++ | + |
